Measurements: the supplement of paper PMC7125110
± gives the standard error. For part of these data: Fewer inactive variants are shown than the library holds.

B1: glmS ribozyme (parent)
chain: AUAAAAGCGCCAGAACUACAGAAAUGUAGUUGACGAGGAGGAGGUUUAUCGAAUUUUCGGCGGAUGCCUCCAAA

Experiments:
Details in all cases: with glucosamine-6-phosphate
glucosamine-6-phosphate [1] = variants of: B1; experiment: kcat; higher = faster cleavage; RNA array
How it was run: (§1)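 Glucosamine-6-phosphate (40 μM to 10 mM) in HEPES/KCl/Mg(OAc)2 buffer was flowed over sequenced MiSeq chips, and tiles were imaged over ~14 h. Barcoded ribozyme variants there had been transcribed in situ by E. coli RNA polymerase and were tracked through a hybridised Cy3 probe at 37 °C. One- or two-exponential decay fits to per-tile medians, normalised to baseline and to non-cleaving reference variants, gave kobs. kcat and KM came from weighted Michaelis–Menten fits across concentrations.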

glucosamine-6-phosphate [2] = variants of: B1; experiment: KM; higher = weaker cofactor use; RNA array
How it was run: as §1

glucosamine-6-phosphate [3] = variants of: B1; experiment: self-cleavage kobs at 40 uM GlcN6P; higher = faster cleavage; RNA array
How it was run: as §1

glucosamine-6-phosphate [4] = variants of: B1; experiment: self-cleavage kobs at 160 uM GlcN6P; higher = faster cleavage; RNA array
How it was run: as §1

glucosamine-6-phosphate [5] = variants of: B1; experiment: self-cleavage kobs at 640 uM GlcN6P; higher = faster cleavage; RNA array
How it was run: as §1

glucosamine-6-phosphate [6] = variants of: B1; experiment: self-cleavage kobs at 2500 uM GlcN6P; higher = faster cleavage; RNA array
How it was run: as §1

glucosamine-6-phosphate [7] = variants of: B1; experiment: self-cleavage kobs at 10000 uM GlcN6P; higher = faster cleavage; RNA array
How it was run: as §1

Row | Variant | kcat (glucosamine-6-phosphate [1]) | KM (glucosamine-6-phosphate [2]) | self-cleavage kobs at 40 uM GlcN6P (glucosamine-6-phosphate [3]) | self-cleavage kobs at 160 uM GlcN6P (glucosamine-6-phosphate [4]) | self-cleavage kobs at 640 uM GlcN6P (glucosamine-6-phosphate [5]) | self-cleavage kobs at 2500 uM GlcN6P (glucosamine-6-phosphate [6]) | self-cleavage kobs at 10000 uM GlcN6P (glucosamine-6-phosphate [7])
1 | G40A A42G | 0.00697 ± 0.0023 s⁻¹ | 1900 ± 820 µM | 0.000182 ± 2.4e-05 s⁻¹ | 0.00046 ± 9.7e-05 s⁻¹ | 0.00157 ± 0.00024 s⁻¹ | 0.00363 ± 0.00075 s⁻¹ | 0.00783 ± 0.0018 s⁻¹
2 | U54C C58U | 4.86e-05 ± 8.6e-06 s⁻¹ | – | – | – | – | 4.48e-05 ± 1.5e-05 s⁻¹ | 4.34e-05 ± 9.3e-06 s⁻¹
3 | G32A C67U C71G | 8.98e-05 ± 2.5e-05 s⁻¹ | – | 5.63e-05 ± 2.5e-05 s⁻¹ | 9.79e-05 ± 2.3e-05 s⁻¹ | 0.000178 ± 4.1e-05 s⁻¹ | 9.42e-05 ± 2.9e-05 s⁻¹ | 5.54e-05 ± 2.2e-05 s⁻¹
4 | G37U U57G | < 1e-05 s⁻¹ | – | – | – | – | < 1e-05 s⁻¹ | –
5 | G35U U65A | < 1e-05 s⁻¹ | – | < 1e-05 s⁻¹ | – | < 1e-05 s⁻¹ | < 1e-05 s⁻¹ | –
6 | U49C C50G | < 1e-05 s⁻¹ | – | < 1e-05 s⁻¹ | < 1e-05 s⁻¹ | – | – | < 1e-05 s⁻¹
7 | C8A C70A | 1.28e-05 ± 2.3e-06 s⁻¹ | – | – | – | – | – | –
8 | C16A C68A | 1.91e-05 ± 5.8e-06 s⁻¹ | – | – | – | – | – | –
9 | U45A U47G | 0.0105 ± 0.0027 s⁻¹ | 1910 ± 690 µM | 0.000279 ± 6e-05 s⁻¹ | 0.000689 ± 0.00013 s⁻¹ | 0.00261 ± 0.00054 s⁻¹ | 0.00915 ± 0.0018 s⁻¹ | 0.00802 ± 0.0015 s⁻¹
10 | G37C G38U | < 1e-05 s⁻¹ | – | < 1e-05 s⁻¹ | – | < 1e-05 s⁻¹ | < 1e-05 s⁻¹ | –
11 | A15U C68A | 2.71e-05 ± 1e-05 s⁻¹ | – | – | – | – | 3.7e-05 ± 1.7e-05 s⁻¹ | –
12 | U46G U69C | 0.0015 ± 0.00017 s⁻¹ | 539 ± 120 µM | 0.000136 ± 3.6e-05 s⁻¹ | 0.000315 ± 7.8e-05 s⁻¹ | 0.00072 ± 0.00016 s⁻¹ | 0.00128 ± 0.00028 s⁻¹ | 0.00149 ± 0.00027 s⁻¹
13 | A15C C16U | 0.00405 ± 0.00069 s⁻¹ | 3220 ± 830 µM | 4.37e-05 ± 7.4e-06 s⁻¹ | 0.000159 ± 4.5e-05 s⁻¹ | 0.000777 ± 0.0001 s⁻¹ | 0.00235 ± 0.00038 s⁻¹ | 0.0029 ± 0.0003 s⁻¹
14 | U31G U56G C67U | 0.00109 ± 0.00017 s⁻¹ | 2910 ± 800 µM | – | 8.73e-05 ± 3.2e-05 s⁻¹ | 0.000176 ± 5.1e-05 s⁻¹ | 0.000493 ± 0.00014 s⁻¹ | 0.00086 ± 0.00015 s⁻¹
15 | A12C C68U | 0.000589 ± 4.7e-05 s⁻¹ | 1370 ± 220 µM | – | 6.12e-05 ± 8.3e-06 s⁻¹ | 0.00018 ± 1.7e-05 s⁻¹ | 0.000436 ± 3.7e-05 s⁻¹ | 0.000494 ± 3.6e-05 s⁻¹
16 | A12C G59A | < 1e-05 s⁻¹ | – | < 1e-05 s⁻¹ | < 1e-05 s⁻¹ | – | – | –
17 | U46C U65A | 0.00399 ± 0.0019 s⁻¹ | – | 7.93e-05 ± 2.3e-05 s⁻¹ | – | 0.000444 ± 0.00012 s⁻¹ | 0.00143 ± 0.00037 s⁻¹ | 0.00295 ± 0.00065 s⁻¹
